According to doi:10.1101/2019.12.17.877662 (bioRxiv, 2019):

Key:
Test in all cases: BLI
[1] = target: T1, TtSSB (Thermus thermophilus, UniProt Q5SLP9 1-263)
T1 sequence: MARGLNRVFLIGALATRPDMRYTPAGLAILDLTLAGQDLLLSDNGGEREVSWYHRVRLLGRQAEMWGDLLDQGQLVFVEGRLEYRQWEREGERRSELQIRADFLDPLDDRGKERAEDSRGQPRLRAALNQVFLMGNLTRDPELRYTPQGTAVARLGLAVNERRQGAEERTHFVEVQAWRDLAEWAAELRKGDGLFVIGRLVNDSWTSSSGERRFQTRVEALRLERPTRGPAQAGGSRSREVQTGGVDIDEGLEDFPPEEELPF

[2] = target: T2, TtRecR (Thermus thermophilus, UniProt Q5SHY0 1-194)
T2 sequence: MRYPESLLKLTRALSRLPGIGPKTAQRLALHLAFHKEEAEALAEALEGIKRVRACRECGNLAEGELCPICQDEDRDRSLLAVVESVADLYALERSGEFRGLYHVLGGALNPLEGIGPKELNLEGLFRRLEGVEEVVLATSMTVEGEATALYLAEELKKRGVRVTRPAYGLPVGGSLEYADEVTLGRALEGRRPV

[3] = target: T3, TtRecF S261C;TtRecR (Thermus thermophilus;Thermus …, UniProt Q5SLM9;Q5SHY0 1-343;1-194, S261C|)
T3 sequence 1: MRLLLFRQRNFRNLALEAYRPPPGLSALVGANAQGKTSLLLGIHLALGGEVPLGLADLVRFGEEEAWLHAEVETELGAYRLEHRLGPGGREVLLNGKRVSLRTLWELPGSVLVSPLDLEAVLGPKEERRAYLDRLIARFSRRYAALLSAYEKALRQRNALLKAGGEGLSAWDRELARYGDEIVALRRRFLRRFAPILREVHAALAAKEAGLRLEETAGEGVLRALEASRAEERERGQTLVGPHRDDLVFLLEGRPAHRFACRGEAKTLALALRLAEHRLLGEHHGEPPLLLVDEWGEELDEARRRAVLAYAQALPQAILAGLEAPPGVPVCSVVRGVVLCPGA
T3 sequence 2: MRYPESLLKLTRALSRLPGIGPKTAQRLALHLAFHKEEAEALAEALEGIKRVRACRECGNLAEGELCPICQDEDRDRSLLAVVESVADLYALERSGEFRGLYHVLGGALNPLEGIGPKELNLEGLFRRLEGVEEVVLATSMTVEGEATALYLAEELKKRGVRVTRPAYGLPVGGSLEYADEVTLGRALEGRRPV

[4] = target: T4, TtRecR G169C (Thermus thermophilus, UniProt Q5SHY0 1-194, G169C)
T4 sequence: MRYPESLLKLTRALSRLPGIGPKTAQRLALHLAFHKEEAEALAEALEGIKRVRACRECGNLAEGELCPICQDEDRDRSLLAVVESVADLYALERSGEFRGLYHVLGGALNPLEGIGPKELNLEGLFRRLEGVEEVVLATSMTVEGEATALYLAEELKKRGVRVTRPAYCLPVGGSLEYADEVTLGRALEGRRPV

[5] = target: T5, TtRecF D57C;TtRecR (Thermus thermophilus;Thermus …, UniProt Q5SLM9;Q5SHY0 1-343;1-194, D57C|)
T5 sequence 1: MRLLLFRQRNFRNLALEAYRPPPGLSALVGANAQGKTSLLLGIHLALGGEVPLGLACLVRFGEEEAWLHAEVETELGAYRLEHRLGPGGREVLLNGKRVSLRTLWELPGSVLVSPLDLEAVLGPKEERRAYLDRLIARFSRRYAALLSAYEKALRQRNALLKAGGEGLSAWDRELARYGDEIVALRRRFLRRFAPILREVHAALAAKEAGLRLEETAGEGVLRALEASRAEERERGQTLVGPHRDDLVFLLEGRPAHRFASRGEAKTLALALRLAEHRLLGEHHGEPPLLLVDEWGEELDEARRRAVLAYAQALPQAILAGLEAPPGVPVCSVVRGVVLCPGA
T5 sequence 2: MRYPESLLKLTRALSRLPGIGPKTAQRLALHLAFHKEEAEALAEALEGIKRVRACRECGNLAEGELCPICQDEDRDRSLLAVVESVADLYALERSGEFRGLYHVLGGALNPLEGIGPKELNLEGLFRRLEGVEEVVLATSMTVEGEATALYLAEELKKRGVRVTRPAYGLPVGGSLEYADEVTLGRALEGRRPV

[6] = target: T6, TtRecF S261C (Thermus thermophilus, UniProt Q5SLM9 1-343, S261C)
T6 sequence: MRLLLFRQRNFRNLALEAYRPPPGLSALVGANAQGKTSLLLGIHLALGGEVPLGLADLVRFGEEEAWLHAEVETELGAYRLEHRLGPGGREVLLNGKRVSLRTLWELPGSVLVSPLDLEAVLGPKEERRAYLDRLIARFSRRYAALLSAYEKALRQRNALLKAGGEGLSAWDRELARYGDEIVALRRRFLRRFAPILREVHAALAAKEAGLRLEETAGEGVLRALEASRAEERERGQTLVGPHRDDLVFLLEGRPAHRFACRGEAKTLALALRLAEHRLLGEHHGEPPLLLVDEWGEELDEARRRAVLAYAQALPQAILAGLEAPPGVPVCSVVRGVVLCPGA

[7] = target: T7, TtRecF D57C (Thermus thermophilus, UniProt Q5SLM9 1-343, D57C)
T7 sequence: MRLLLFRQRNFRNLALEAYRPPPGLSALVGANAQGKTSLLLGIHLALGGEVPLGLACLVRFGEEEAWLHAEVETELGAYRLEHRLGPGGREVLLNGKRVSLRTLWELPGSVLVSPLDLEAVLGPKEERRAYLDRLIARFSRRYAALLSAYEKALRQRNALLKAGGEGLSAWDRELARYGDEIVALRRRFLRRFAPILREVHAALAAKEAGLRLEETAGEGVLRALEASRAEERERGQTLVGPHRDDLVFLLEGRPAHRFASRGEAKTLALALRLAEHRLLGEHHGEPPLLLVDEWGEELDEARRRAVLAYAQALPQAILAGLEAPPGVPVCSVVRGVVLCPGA

B1: biotinylated 36-mer ssDNA (ssDNA)
DNA: GCAATGAAGTACGCTTGCCAGCTGCAGTCATGATTG
In the case of B1, the Kd [1] is reported as ~0.0072 µM, the binding result [2] is reported as “no binding” and the binding result [3] is reported as “binds”. The binding result [4] was “binds”, the binding result [5] was “binds” and the Kd [6] was 19.7 µM. The Kd [7] was 146 µM.
